In patent publication US20030082185A1:

Target: HIV-1 JR-FL gp120 envelope glycoprotein (HIV-1 JR-FL)
Assay: cell-based or functional assay

## CD4-IgG2 (from UniProt P01730 26-204; P01730 26-204) (Fc fusion)
  K (equal to the IC50) for inhibition of HIV-1 env-mediated membrane fusion, RET assay, HeLa-EnvJR-FL and PM1 cells: 0.31 µg/mL
